Experimental data from patent publication US20140371143A1.

Biological target: RANKL ectodomain (eRANKL, residues 157-316) of rat (rat) (UniProt Q9ESE2)
Assay: crystal structure of the complex

Sequence of UniProt Q9ESE2 (Q9ESE2 157-316 limits assumed): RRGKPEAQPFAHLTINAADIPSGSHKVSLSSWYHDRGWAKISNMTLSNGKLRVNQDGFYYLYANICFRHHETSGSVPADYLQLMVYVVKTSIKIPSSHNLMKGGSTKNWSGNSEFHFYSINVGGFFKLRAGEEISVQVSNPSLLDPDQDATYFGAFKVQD

RANK ectodomain (eRANK, residue 32-201) of rat (receptor)
reduction of solvent accessible surface area on binding: 7680 Å^2
reduction of solvent accessible surface area on binding, share of the total accessible surface area of unbound receptors and ligands: 15.4%
